Source: patent US20050158769

What was measured:
[1] = test system: T1, MseI restriction endonuclease (R.MseI) (Micrococcus sp. NEB#446); assay: cleavage_in_vitro; conditions: NEBuffer 2 (50 mM NaCl, 10 mM MgCl2, 10 mM Tris-HCl, 1 mM DTT, pH 7.9) + BSA, 37 C; 1 unit digests 1 ug lambda DNA in 1 h
T1 sequence: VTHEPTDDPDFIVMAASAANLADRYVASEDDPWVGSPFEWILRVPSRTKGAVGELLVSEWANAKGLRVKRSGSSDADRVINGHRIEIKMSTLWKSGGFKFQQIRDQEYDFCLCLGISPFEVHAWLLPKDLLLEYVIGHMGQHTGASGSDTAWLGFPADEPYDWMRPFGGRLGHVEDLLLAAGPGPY

[2] = test system: T2, MseI restriction endonuclease (native) (Micrococcus sp. NEB#446); assay: cleavage_in_vitro; conditions: native enzyme; substrate inferred from the unit assay
T2 sequence: T1 sequence

lambda DNA
activity (units total purified) [1]: 2.6e+07 | activity (units total purified (approx.)) [2]: 10000
